Assay results published in US20230416410A1 (ZOETIS SERVICES, published 2023).
Where two headings read alike, the source gives them in different places.

T1: recombinant bovine FcgR2 (bovine, UniProt Q28110 43-225, limits assumed, biotin on the BAP tag (BirA))
T1 construct: also called bFcgR2; bFcgRII
T1 sequence: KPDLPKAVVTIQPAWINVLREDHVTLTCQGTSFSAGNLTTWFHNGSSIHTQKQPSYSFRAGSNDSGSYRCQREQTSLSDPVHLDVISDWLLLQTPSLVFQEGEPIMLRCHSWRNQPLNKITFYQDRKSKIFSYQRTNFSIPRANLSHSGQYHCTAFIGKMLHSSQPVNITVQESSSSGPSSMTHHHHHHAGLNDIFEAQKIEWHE

T2: recombinant bovine FcgR3 (bovine, UniProt P79107 17-208, limits assumed, biotin on the BAP tag (BirA))
T2 construct: also called bFcgR3; bFcgRIII
T2 sequence: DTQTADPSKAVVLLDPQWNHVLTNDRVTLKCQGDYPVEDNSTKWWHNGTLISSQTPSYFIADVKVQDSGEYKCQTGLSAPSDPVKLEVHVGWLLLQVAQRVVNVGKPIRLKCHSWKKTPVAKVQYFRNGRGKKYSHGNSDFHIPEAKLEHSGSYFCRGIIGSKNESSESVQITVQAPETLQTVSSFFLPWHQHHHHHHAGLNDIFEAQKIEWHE


What was measured:
[1] = target: T3, complement component C1q (in bovine complement preserved serum) (bovine, UniProt Q5E9E3 23-244; Q2KIV9 23-247); experiment: cell-based or functional assay
recombinant bovine FcgR2 [2] = target: T1, recombinant bovine FcgR2; experiment: SPR Biacore, biotinylated receptor on SA sensor, pH 7.4, 15 C
Procedure: (§1) A Biacore SPR binding assay was designed to test the affinity of bovine IgG subclasses to bFcgR1, bFcgR2 and bFcgR3. All reported KD's were measured by Biacore (Cytiva, Marlborough, MA, USA) using series S SA sensor. Biotinylated-bovine FcgR1, R2 and R3 were captured on the sensor surface using a modified SA capture method to reach the desired surface density. 10 mM HEPES, 150 mM NaCl, 3 mM EDTA, 0.05% v/v surfactant P20, pH7.4 buffer was used as the running and titration buffer. Various concentrations of bovine CTLA4-Fc fusions or mAbs were titrated and flowed over the receptor surface and affinities were determined using Biacore T200 Evaluation software (Cytiva, Marlborough, MA, USA) with 1:1 binding model. The method of double referencing has been applied where the reference flow cell was subtracted from the flow cell containing immobilized receptors and blank runs containing buffer only were subtracted out from all runs. Flow cells were regenerated using 10 mM Glycine pH1.5. Runs were performed at 15° C.
(§2) The ability to knock out binding to bovine Fc gamma receptors was evaluated by comparing SPR Biacore bFcgR affinity of bIgG1a and bIgG1b wildtype Fc to the bIgG1a and bIgG1b mutations, described above. All mutations made to bIgG1 are identical for the a and b allotypes. Biacore methods for bFcgR1, R2, and R3 were performed as described in Example 1.

recombinant bovine FcgR1 = target: T4, recombinant bovine FcgR1 (bovine, biotin on the BAP tag (BirA)); experiment: as above
T4 construct: also called bFcgR1; bFcgRI
Procedure: as §1, §2

recombinant bovine FcgR3 = target: T2, recombinant bovine FcgR3; experiment: as above
Procedure: as §1, §2

recombinant bovine FcgR2 [3] = target: T1, recombinant bovine FcgR2; experiment: as above; remark: listed apart in the source
Procedure: as §1
Biacore methods for bFcgR1, R2, and R3 were performed as described in Examples above. […] Although the two allotypes have different KDs for bFcgR2 and bFcgR3, both wildtype allotypes do bind. All of the mutations, bIgG3Win, bIgG3WinSAS, bIgG3SAS and bIgG3SAP for both the a and b allotypes knocked down binding to bFcgR1, bFcgR2 and bFcgR3 to negligible affinities. Thus, for knocking out receptor binding, the two allotypes compare similarly.

[4] = target: T3, complement component C1q (in bovine …); experiment: cell-based or functional assay; remark: listed apart in the source

T3 sequence (Q5E9E3 23-244, chain 1 of 2): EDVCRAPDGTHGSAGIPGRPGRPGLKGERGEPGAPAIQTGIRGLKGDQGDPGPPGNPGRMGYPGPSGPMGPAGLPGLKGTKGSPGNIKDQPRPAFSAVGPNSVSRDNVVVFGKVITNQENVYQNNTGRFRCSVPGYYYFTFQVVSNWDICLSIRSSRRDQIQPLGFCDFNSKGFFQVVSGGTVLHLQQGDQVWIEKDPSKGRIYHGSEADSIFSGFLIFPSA
T3 sequence (Q2KIV9 23-247, chain 2 of 2): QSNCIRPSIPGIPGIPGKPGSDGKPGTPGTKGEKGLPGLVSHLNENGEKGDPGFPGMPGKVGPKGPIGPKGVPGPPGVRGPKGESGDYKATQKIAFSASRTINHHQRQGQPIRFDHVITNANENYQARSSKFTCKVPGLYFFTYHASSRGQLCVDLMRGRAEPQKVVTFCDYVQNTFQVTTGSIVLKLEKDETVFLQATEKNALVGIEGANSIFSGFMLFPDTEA

| Binder | Kd (recombinant bovine FcgR1) | binding result (recombinant bovine FcgR2 [2]) | binding result (recombinant bovine FcgR2 [3]) | further results |
| --- | --- | --- | --- | --- |
| CTLA4 Fc bIgG1b (Fc fusion, No linker; also called bIgG1b wildtype; CTLA4 Fc bIgG1b wildtype) DMHVAQPAVVLASSRGVASFVCEYGSSGNAAEVRVTVLRQAGSQMTEVCAATYTVEDELAFLDDSTCTGTSSGNKVNLTIQGLRAMDTGLYICKVELMYPPPYYVGMGNGTQIYVIDPEPCPDSDDPTCKPSPCDCCPPPELPGGPSVFIFPPKPKDTLTISGTPEVTCVVVDVGHDDPEVKFSWFVDDVEVNTATTKPREEQFNSTYRVVSALRIQHQDWTGGKEFKCKVHNEGLPAPIVRTISRTKGPAREPQVYVLAPPQEELSKSTVSLTCMVTSFYPDYIAVEWQRNGQPESEDKYGTTPPQLDADSSYFLYSKLRVDRNSWQEGDTYTCVVMHEALHNHYTQKSTSKSAGK | 0.463 nM | – | – | CDC EC50 Value [1]: 0.036 µg/mL; Kd (recombinant bovine FcgR2 [2]): 2.48 nM; Kd (recombinant bovine FcgR3): 13.7 nM |
| CTLA4 Fc bIgG1bSAS (Fc fusion, No linker) DMHVAQPAVVLASSRGVASFVCEYGSSGNAAEVRVTVLRQAGSQMTEVCAATYTVEDELAFLDDSTCTGTSSGNKVNLTIQGLRAMDTGLYICKVELMYPPPYYVGMGNGTQIYVIDPEPCPDSDDPTCKPSPCDCCPPPELPGGPSVFIFPPKPKDTLTISGTPEVTCVVVDVGHDDPEVKFSWFVDDVEVNTATTKPREEQFNSTYRVVSALRIQHQDWTGGKEFKCKVHNEGLSASIVRTISRTKGPAREPQVYVLAPPQEELSKSTVSLTCMVTSFYPDYIAVEWQRNGQPESEDKYGTTPPQLDADSSYFLYSKLRVDRNSWQEGDTYTCVVMHEALHNHYTQKSTSKSAGK | – | no binding | – | – |
| CTLA4 Fc bIgG1bWin (Fc fusion, No linker) DMHVAQPAVVLASSRGVASFVCEYGSSGNAAEVRVTVLRQAGSQMTEVCAATYTVEDELAFLDDSTCTGTSSGNKVNLTIQGLRAMDTGLYICKVELMYPPPYYVGMGNGTQIYVIDPEPCPDSDDPTCKPSPCDCCPPPEAAGAPSVFIFPPKPKDTLTISGTPEVTCVVVDVGHDDPEVKFSWFVDDVEVNTATTKPREEQFNSTYRVVSALRIQHQDWTGGKEFKCKVHNEGLPAPIVRTISRTKGPAREPQVYVLAPPQEELSKSTVSLTCMVTSFYPDYIAVEWQRNGQPESEDKYGTTPPQLDADSSYFLYSKLRVDRNSWQEGDTYTCVVMHEALHNHYTQKSTSKSAGK | 3.73 nM | – | – | CDC EC50 Value [1]: 0.015 µg/mL; Kd (recombinant bovine FcgR2 [2]): 3.24 nM |
| CTLA4 Fc bIgG3bSAP (Fc fusion, No linker) DMHVAQPAVVLASSRGVASFVCEYGSSGNAAEVRVTVLRQAGSQMTEVCAATYTVEDELAFLDDSTCTGTSSGNKVNLTIQGLRAMDTGLYICKVELMYPPPYYVGMGNGTQIYVIDPEPCPDSDTARRPVPTTPKTTIPPGKPTTQESEVEKTPCQCSKCPEPLGGLSVFIFPPKPKDTLTISGTPEVTCVVVDVGQDDPEVQFSWFVDDVEVHTARTKPREEQFNSTYRVVSALRIQHQDWLQGKEFKCKVNNKGLSAPIVRTISRTKGQAREPQVYVLAPPREELSKSTLSLTCLITGFYPEEIDVEWQRNGQPESEDKYHTTAPQLDADGSYFLYSRLRVNKSSWQEGDHYTCAVMHEALRNHYKEKSISRSPGK | – | – | no binding | – |
| CTLA4 Fc bIgG3bSAS (Fc fusion, No linker) DMHVAQPAVVLASSRGVASFVCEYGSSGNAAEVRVTVLRQAGSQMTEVCAATYTVEDELAFLDDSTCTGTSSGNKVNLTIQGLRAMDTGLYICKVELMYPPPYYVGMGNGTQIYVIDPEPCPDSDTARRPVPTTPKTTIPPGKPTTQESEVEKTPCQCSKCPEPLGGLSVFIFPPKPKDTLTISGTPEVTCVVVDVGQDDPEVQFSWFVDDVEVHTARTKPREEQFNSTYRVVSALRIQHQDWLQGKEFKCKVNNKGLSASIVRTISRTKGQAREPQVYVLAPPREELSKSTLSLTCLITGFYPEEIDVEWQRNGQPESEDKYHTTAPQLDADGSYFLYSRLRVNKSSWQEGDHYTCAVMHEALRNHYKEKSISRSPGK | – | – | no binding | – |
| CTLA4 Fc bIgG3bWinSAS (Fc fusion, No linker) DMHVAQPAVVLASSRGVASFVCEYGSSGNAAEVRVTVLRQAGSQMTEVCAATYTVEDELAFLDDSTCTGTSSGNKVNLTIQGLRAMDTGLYICKVELMYPPPYYVGMGNGTQIYVIDPEPCPDSDTARRPVPTTPKTTIPPGKPTTQESEVEKTPCQCSKCPEAAGALSVFIFPPKPKDTLTISGTPEVTCVVVDVGQDDPEVQFSWFVDDVEVHTARTKPREEQFNSTYRVVSALRIQHQDWLQGKEFKCKVNNKGLSASIVRTISRTKGQAREPQVYVLAPPREELSKSTLSLTCLITGFYPEEIDVEWQRNGQPESEDKYHTTAPQLDADGSYFLYSRLRVNKSSWQEGDHYTCAVMHEALRNHYKEKSISRSPGK | – | – | no binding | – |

More lines, main results first:

| Kd (recombinant bovine FcgR1) | binding result (recombinant bovine FcgR2 [2]) | binding result (recombinant bovine FcgR2 [3]) | Binder | further results |
| --- | --- | --- | --- | --- |
| 70.4 nM | – | – | CTLA4 Fc bIgG1bWinSS (Fc fusion, No linker) DMHVAQPAVVLASSRGVASFVCEYGSSGNAAEVRVTVLRQAGSQMTEVCAATYTVEDELAFLDDSTCTGTSSGNKVNLTIQGLRAMDTGLYICKVELMYPPPYYVGMGNGTQIYVIDPEPCPDSDDPTCKPSPCDCCPPPEAAGAPSVFIFPPKPKDTLTISGTPEVTCVVVDVGHDDPEVKFSWFVDDVEVNTATTKPREEQFNSTYRVVSALRIQHQDWTGGKEFKCKVHNEGLPSSIVRTISRTKGPAREPQVYVLAPPQEELSKSTVSLTCMVTSFYPDYIAVEWQRNGQPESEDKYGTTPPQLDADSSYFLYSKLRVDRNSWQEGDTYTCVVMHEALHNHYTQKSTSKSAGK | – |
| – | no binding | – | CTLA4 Fc bIgG1bWinSAS (Fc fusion, No linker) DMHVAQPAVVLASSRGVASFVCEYGSSGNAAEVRVTVLRQAGSQMTEVCAATYTVEDELAFLDDSTCTGTSSGNKVNLTIQGLRAMDTGLYICKVELMYPPPYYVGMGNGTQIYVIDPEPCPDSDDPTCKPSPCDCCPPPEAAGAPSVFIFPPKPKDTLTISGTPEVTCVVVDVGHDDPEVKFSWFVDDVEVNTATTKPREEQFNSTYRVVSALRIQHQDWTGGKEFKCKVHNEGLSASIVRTISRTKGPAREPQVYVLAPPQEELSKSTVSLTCMVTSFYPDYIAVEWQRNGQPESEDKYGTTPPQLDADSSYFLYSKLRVDRNSWQEGDTYTCVVMHEALHNHYTQKSTSKSAGK | – |
| – | no binding | – | CTLA4 Fc bIgG1bSAP (Fc fusion, No linker) DMHVAQPAVVLASSRGVASFVCEYGSSGNAAEVRVTVLRQAGSQMTEVCAATYTVEDELAFLDDSTCTGTSSGNKVNLTIQGLRAMDTGLYICKVELMYPPPYYVGMGNGTQIYVIDPEPCPDSDDPTCKPSPCDCCPPPELPGGPSVFIFPPKPKDTLTISGTPEVTCVVVDVGHDDPEVKFSWFVDDVEVNTATTKPREEQFNSTYRVVSALRIQHQDWTGGKEFKCKVHNEGLSAPIVRTISRTKGPAREPQVYVLAPPQEELSKSTVSLTCMVTSFYPDYIAVEWQRNGQPESEDKYGTTPPQLDADSSYFLYSKLRVDRNSWQEGDTYTCVVMHEALHNHYTQKSTSKSAGK | – |
| – | – | no binding | CTLA4 Fc bIgG3bWin (Fc fusion, No linker) DMHVAQPAVVLASSRGVASFVCEYGSSGNAAEVRVTVLRQAGSQMTEVCAATYTVEDELAFLDDSTCTGTSSGNKVNLTIQGLRAMDTGLYICKVELMYPPPYYVGMGNGTQIYVIDPEPCPDSDTARRPVPTTPKTTIPPGKPTTQESEVEKTPCQCSKCPEAAGALSVFIFPPKPKDTLTISGTPEVTCVVVDVGQDDPEVQFSWFVDDVEVHTARTKPREEQFNSTYRVVSALRIQHQDWLQGKEFKCKVNNKGLPAPIVRTISRTKGQAREPQVYVLAPPREELSKSTLSLTCLITGFYPEEIDVEWQRNGQPESEDKYHTTAPQLDADGSYFLYSRLRVNKSSWQEGDHYTCAVMHEALRNHYKEKSISRSPGK | CDC EC50 Value [4]: 0.062 µg/mL |
